Measurements published in patent US20260209293A1 (Novo Nordisk, published 2026).
*1 amine or outer side, *2 acyl side, *3 side chain or, on linkers, in order; H or OH if unused. The star is where a group is joined. C18 diacid = O=C(O)CCCCCCCCCCCCCCCCC(=O)*; γGlu = O=C(O)[C@H](CCC(=O)[*:2])N[*:1]

T1: human amylin-3(a) receptor (human, UniProt P30988 25-474; O60896 24-148)
T1 sequence (looked up) 1: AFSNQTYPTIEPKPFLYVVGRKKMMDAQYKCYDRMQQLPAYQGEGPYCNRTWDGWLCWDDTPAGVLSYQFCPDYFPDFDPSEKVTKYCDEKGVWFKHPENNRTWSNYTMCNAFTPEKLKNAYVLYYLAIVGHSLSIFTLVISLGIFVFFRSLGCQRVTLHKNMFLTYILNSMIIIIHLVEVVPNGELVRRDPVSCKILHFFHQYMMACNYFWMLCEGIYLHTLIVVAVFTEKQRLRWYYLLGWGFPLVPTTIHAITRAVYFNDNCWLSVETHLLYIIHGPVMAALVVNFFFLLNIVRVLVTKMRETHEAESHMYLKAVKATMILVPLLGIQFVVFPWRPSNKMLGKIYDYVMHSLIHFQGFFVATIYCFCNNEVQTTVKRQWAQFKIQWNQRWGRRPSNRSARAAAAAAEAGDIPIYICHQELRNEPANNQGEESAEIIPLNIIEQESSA
T1 sequence (looked up) 2: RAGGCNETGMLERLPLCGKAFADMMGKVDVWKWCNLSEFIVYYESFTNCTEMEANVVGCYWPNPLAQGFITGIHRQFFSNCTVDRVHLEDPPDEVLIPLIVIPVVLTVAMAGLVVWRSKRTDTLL

T2: human calcitonin receptor (a) (human, UniProt P30988 25-474)
T2 sequence (looked up): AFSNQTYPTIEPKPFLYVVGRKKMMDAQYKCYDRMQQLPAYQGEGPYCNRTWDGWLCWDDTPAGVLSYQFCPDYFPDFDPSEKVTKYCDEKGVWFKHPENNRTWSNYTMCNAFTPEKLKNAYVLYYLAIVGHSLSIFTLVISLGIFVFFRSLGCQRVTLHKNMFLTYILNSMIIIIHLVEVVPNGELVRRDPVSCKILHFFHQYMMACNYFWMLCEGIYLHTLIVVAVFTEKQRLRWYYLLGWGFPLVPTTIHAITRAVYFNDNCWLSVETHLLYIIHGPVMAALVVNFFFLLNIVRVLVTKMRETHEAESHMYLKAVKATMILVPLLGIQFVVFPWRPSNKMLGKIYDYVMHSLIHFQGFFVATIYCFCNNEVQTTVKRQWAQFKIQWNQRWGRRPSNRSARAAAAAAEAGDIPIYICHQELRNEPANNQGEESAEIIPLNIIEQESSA


Key:
[1] = target: T1, human amylin-3(a) receptor; experiment: cell-based or functional assay
[2] = target: T2, human calcitonin receptor (a); experiment: cell-based or functional assay

| hAmyR3 potency, EC50 (pM); CRE-luciferase reporter in BHK cells [1] [pM] | hCalcR potency, EC50 (pM); CRE-luciferase reporter in BHK cells [2] [pM] | Binder |
| --- | --- | --- |
| 1.31 | 2.19 | {C18 diacid-γGlu}-ASHLSTAQTQRLAEFLHHSSDPFGAIPSSTDVGPNTP-NH2 (SMILES CC[C@H](C)[C@H](NC(=O)[C@H](C)NC(=O)CNC(=O)[C@H](Cc1ccccc1)NC(=O)[C@@H]1CCCN1C(=O)[C@H](CC(=O)O)NC(=O)[C@H](CO)NC(=O)[C@H](CO)NC(=O)[C@H](Cc1c[nH]cn1)NC(=O)[C@H](Cc1c[nH]cn1)NC(=O)[C@H](CC(C)C)NC(=O)[C@H](Cc1ccccc1)NC(=O)[C@H](CCC(=O)O)NC(=O)[C@H](C)NC(=O)[C@H](CC(C)C)NC(=O)[C@H](CCCNC(=N)N)NC(=O)[C@H](CCC(N)=O)NC(=O)[C@@H](NC(=O)[C@H](CCC(N)=O)NC(=O)[C@H](C)NC(=O)[C@@H](NC(=O)[C@H](CO)NC(=O)[C@H](CC(C)C)NC(=O)[C@H](Cc1c[nH]cn1)NC(=O)[C@H](CO)NC(=O)[C@H](C)NC(=O)CC[C@H](NC(=O)CCCCCCCCCCCCCCCCC(=O)O)C(=O)O)[C@@H](C)O)[C@@H](C)O)C(=O)N1CCC[C@H]1C(=O)N[C@@H](CO)C(=O)N[C@@H](CO)C(=O)N[C@H](C(=O)N[C@@H](CC(=O)O)C(=O)N[C@H](C(=O)NCC(=O)N1CCC[C@H]1C(=O)N[C@@H](CC(N)=O)C(=O)N[C@H](C(=O)N1CCC[C@H]1C(N)=O)[C@@H](C)O)C(C)C)[C@@H](C)O) |
| 1.49 | 1.56 | {C18 diacid-γGlu}-ASQLSTAQTQRLAEFLHHSSDPFGAIPSSTDVGPDTP-NH2 (SMILES CC[C@H](C)[C@H](NC(=O)[C@H](C)NC(=O)CNC(=O)[C@H](Cc1ccccc1)NC(=O)[C@@H]1CCCN1C(=O)[C@H](CC(=O)O)NC(=O)[C@H](CO)NC(=O)[C@H](CO)NC(=O)[C@H](Cc1c[nH]cn1)NC(=O)[C@H](Cc1c[nH]cn1)NC(=O)[C@H](CC(C)C)NC(=O)[C@H](Cc1ccccc1)NC(=O)[C@H](CCC(=O)O)NC(=O)[C@H](C)NC(=O)[C@H](CC(C)C)NC(=O)[C@H](CCCNC(=N)N)NC(=O)[C@H](CCC(N)=O)NC(=O)[C@@H](NC(=O)[C@H](CCC(N)=O)NC(=O)[C@H](C)NC(=O)[C@@H](NC(=O)[C@H](CO)NC(=O)[C@H](CC(C)C)NC(=O)[C@H](CCC(N)=O)NC(=O)[C@H](CO)NC(=O)[C@H](C)NC(=O)CC[C@H](NC(=O)CCCCCCCCCCCCCCCCC(=O)O)C(=O)O)[C@@H](C)O)[C@@H](C)O)C(=O)N1CCC[C@H]1C(=O)N[C@@H](CO)C(=O)N[C@@H](CO)C(=O)N[C@H](C(=O)N[C@@H](CC(=O)O)C(=O)N[C@H](C(=O)NCC(=O)N1CCC[C@H]1C(=O)N[C@@H](CC(=O)O)C(=O)N[C@H](C(=O)N1CCC[C@H]1C(N)=O)[C@@H](C)O)C(C)C)[C@@H](C)O) |
| 1.22 | 1.86 | {C18 diacid-γGlu}-ASQLSTAQTARLAEFLHHSSDNFGPILPPTDVGSNTP-NH2 (SMILES CC[C@H](C)[C@H](NC(=O)[C@@H]1CCCN1C(=O)CNC(=O)[C@H](Cc1ccccc1)NC(=O)[C@H](CC(N)=O)NC(=O)[C@H](CC(=O)O)NC(=O)[C@H](CO)NC(=O)[C@H](CO)NC(=O)[C@H](Cc1c[nH]cn1)NC(=O)[C@H](Cc1c[nH]cn1)NC(=O)[C@H](CC(C)C)NC(=O)[C@H](Cc1ccccc1)NC(=O)[C@H](CCC(=O)O)NC(=O)[C@H](C)NC(=O)[C@H](CC(C)C)NC(=O)[C@H](CCCNC(=N)N)NC(=O)[C@H](C)NC(=O)[C@@H](NC(=O)[C@H](CCC(N)=O)NC(=O)[C@H](C)NC(=O)[C@@H](NC(=O)[C@H](CO)NC(=O)[C@H](CC(C)C)NC(=O)[C@H](CCC(N)=O)NC(=O)[C@H](CO)NC(=O)[C@H](C)NC(=O)CC[C@H](NC(=O)CCCCCCCCCCCCCCCCC(=O)O)C(=O)O)[C@@H](C)O)[C@@H](C)O)C(=O)N[C@@H](CC(C)C)C(=O)N1CCC[C@H]1C(=O)N1CCC[C@H]1C(=O)N[C@H](C(=O)N[C@@H](CC(=O)O)C(=O)N[C@H](C(=O)NCC(=O)N[C@@H](CO)C(=O)N[C@@H](CC(N)=O)C(=O)N[C@H](C(=O)N1CCC[C@H]1C(N)=O)[C@@H](C)O)C(C)C)[C@@H](C)O) |
| 1.27 | 1.5 | {C18 diacid-γGlu}-ASHLSTAQTARLAEFLHHSSDPFGAIPSSTDVGPDTP-NH2 (SMILES CC[C@H](C)[C@H](NC(=O)[C@H](C)NC(=O)CNC(=O)[C@H](Cc1ccccc1)NC(=O)[C@@H]1CCCN1C(=O)[C@H](CC(=O)O)NC(=O)[C@H](CO)NC(=O)[C@H](CO)NC(=O)[C@H](Cc1c[nH]cn1)NC(=O)[C@H](Cc1c[nH]cn1)NC(=O)[C@H](CC(C)C)NC(=O)[C@H](Cc1ccccc1)NC(=O)[C@H](CCC(=O)O)NC(=O)[C@H](C)NC(=O)[C@H](CC(C)C)NC(=O)[C@H](CCCNC(=N)N)NC(=O)[C@H](C)NC(=O)[C@@H](NC(=O)[C@H](CCC(N)=O)NC(=O)[C@H](C)NC(=O)[C@@H](NC(=O)[C@H](CO)NC(=O)[C@H](CC(C)C)NC(=O)[C@H](Cc1c[nH]cn1)NC(=O)[C@H](CO)NC(=O)[C@H](C)NC(=O)CC[C@H](NC(=O)CCCCCCCCCCCCCCCCC(=O)O)C(=O)O)[C@@H](C)O)[C@@H](C)O)C(=O)N1CCC[C@H]1C(=O)N[C@@H](CO)C(=O)N[C@@H](CO)C(=O)N[C@H](C(=O)N[C@@H](CC(=O)O)C(=O)N[C@H](C(=O)NCC(=O)N1CCC[C@H]1C(=O)N[C@@H](CC(=O)O)C(=O)N[C@H](C(=O)N1CCC[C@H]1C(N)=O)[C@@H](C)O)C(C)C)[C@@H](C)O) |
| 1.64 | 1.89 | {C18 diacid-γGlu}-ASHLSTAQTQRLAEFLHHSSDNFGPILPPTDVGSNTP-NH2 (SMILES CC[C@H](C)[C@H](NC(=O)[C@@H]1CCCN1C(=O)CNC(=O)[C@H](Cc1ccccc1)NC(=O)[C@H](CC(N)=O)NC(=O)[C@H](CC(=O)O)NC(=O)[C@H](CO)NC(=O)[C@H](CO)NC(=O)[C@H](Cc1c[nH]cn1)NC(=O)[C@H](Cc1c[nH]cn1)NC(=O)[C@H](CC(C)C)NC(=O)[C@H](Cc1ccccc1)NC(=O)[C@H](CCC(=O)O)NC(=O)[C@H](C)NC(=O)[C@H](CC(C)C)NC(=O)[C@H](CCCNC(=N)N)NC(=O)[C@H](CCC(N)=O)NC(=O)[C@@H](NC(=O)[C@H](CCC(N)=O)NC(=O)[C@H](C)NC(=O)[C@@H](NC(=O)[C@H](CO)NC(=O)[C@H](CC(C)C)NC(=O)[C@H](Cc1c[nH]cn1)NC(=O)[C@H](CO)NC(=O)[C@H](C)NC(=O)CC[C@H](NC(=O)CCCCCCCCCCCCCCCCC(=O)O)C(=O)O)[C@@H](C)O)[C@@H](C)O)C(=O)N[C@@H](CC(C)C)C(=O)N1CCC[C@H]1C(=O)N1CCC[C@H]1C(=O)N[C@H](C(=O)N[C@@H](CC(=O)O)C(=O)N[C@H](C(=O)NCC(=O)N[C@@H](CO)C(=O)N[C@@H](CC(N)=O)C(=O)N[C@H](C(=O)N1CCC[C@H]1C(N)=O)[C@@H](C)O)C(C)C)[C@@H](C)O) |
| 1.62 | 1.58 | {C18 diacid-γGlu}-ASALSTAQTARLAEFLHHSSDNFGPILPPTDVGSNTP-NH2 (SMILES CC[C@H](C)[C@H](NC(=O)[C@@H]1CCCN1C(=O)CNC(=O)[C@H](Cc1ccccc1)NC(=O)[C@H](CC(N)=O)NC(=O)[C@H](CC(=O)O)NC(=O)[C@H](CO)NC(=O)[C@H](CO)NC(=O)[C@H](Cc1c[nH]cn1)NC(=O)[C@H](Cc1c[nH]cn1)NC(=O)[C@H](CC(C)C)NC(=O)[C@H](Cc1ccccc1)NC(=O)[C@H](CCC(=O)O)NC(=O)[C@H](C)NC(=O)[C@H](CC(C)C)NC(=O)[C@H](CCCNC(=N)N)NC(=O)[C@H](C)NC(=O)[C@@H](NC(=O)[C@H](CCC(N)=O)NC(=O)[C@H](C)NC(=O)[C@@H](NC(=O)[C@H](CO)NC(=O)[C@H](CC(C)C)NC(=O)[C@H](C)NC(=O)[C@H](CO)NC(=O)[C@H](C)NC(=O)CC[C@H](NC(=O)CCCCCCCCCCCCCCCCC(=O)O)C(=O)O)[C@@H](C)O)[C@@H](C)O)C(=O)N[C@@H](CC(C)C)C(=O)N1CCC[C@H]1C(=O)N1CCC[C@H]1C(=O)N[C@H](C(=O)N[C@@H](CC(=O)O)C(=O)N[C@H](C(=O)NCC(=O)N[C@@H](CO)C(=O)N[C@@H](CC(N)=O)C(=O)N[C@H](C(=O)N1CCC[C@H]1C(N)=O)[C@@H](C)O)C(C)C)[C@@H](C)O) |
